Data as given in the DeepSol protein solubility set.

Experiment: soluble on expression in E. coli; label from the status in PepcDB or PDB records

Sequence | soluble on expression in E. coli
MDYILGRYVKIARYGSGGLVGGGGKEQYVENLVLWENIIKTAYCFITPSSYTAALETANIPEKDFSNCFRFLKENFFIIPGEYNNSTENNRYSRNFLHYQSYGANPVLVQDKLKNAKVVILGCGGIGNHVSVILATSGIGEIILIDNDQIENTNLTRQVLFSEDDVGKNKTEVIKRELLKRNSEISVSEIALNINDYTDLHKVPEADIWVVSADHPFNLINWVNKYCVRANQPYINAGYVNDIAVFGPLYVPGKTGCYECQKVVADLYGSEKENIDHKIKLINSRFKPATFAPVNNVAAALCAADVIKFIGKYSEPLSLNKRIGIWSDEIKIHSQNMGRSPVCSVCGNRMLEHHHHHH | soluble
MDYKSKTANDKEISIYYFSATGNSLKLSQDIAAAFGGAGLFRMTPSAGITASDSRIVGFIFPVYMGGLPGIVRRFLESYPFRKGVYYFSIGTYYTYKGCAVSVVDKIMSGKGVRLDYGYNLPTVGNCLKEYEVSSVRRTKILERAELYTSRIIDDLKKGKRKKPFPYCRLSDLLHKGLFNAFFSRSHLNFSLENGCMGCGVCERVCPVNNITLKNGVPRWGTGCEACHACVHWCPRNVIQIGKSKGRLQYHHPAVKRTMLYRVELEHHHHHH | not soluble
MDYTIENNMIKVVISDHGAEIQSVKSAHTDEEFMWQANPEIWGRHAPVLFPIVGRLKNDEYTYKGKTYHLGQHGFARNADFEVENHTKESITFLLKDNEETRKVYPFKFEFRVNYNLMNNLLEENFSVVNKSDETMIFGVGGHPGFNLPTDHGENKEDFYFDMHPSVTRVRIPLKDASLDWNNRSLAPTDSLIALSDDLFKDDALIYELRGNDNKVSLRTDKNKFHVNVWTRDAPFVGIWSQYPKTDNYVCIEPWWGIADRDDADGDLEHKYGMNHLKPGKEFQAGFSMTYHSTTDEVKLEHHHHHH | soluble
MEAAASEPSLDLDNLKLLELIGRGRYGAVYKGSLDERPVAVKVFSFANRQNFINEKNIYRVPLMEHDNIARFIVGDERVTADGRMEYLLVMEYYPNGSLCKYLSLHTSDWVSSCRLAHSVTRGLAYLHTELPRGDHYKPAISHRDLNSRNVLVKNDGTCVISDFGLSMRLTGNRLVRPGEEDNAAISEVGTIRYMAPEVLEGAVNLRDCESALKQVDMYALGLIYWEIFMRCTDLFPGESVPEYQMAFQTEVGNHPTFEDMQVLVSREKQRPKFPEAWKENSLAVRSLKETIEDCWDQDAEARLTAQCAEERMAELMMIWERNKSVSPTAHHHHHH | soluble
MEAAHFFEGTEKLLEVWFSRQQPDANQGSGDLRTIPRSEWDILLKDVQCSIISVTKTDKQEAYVLSEASMFVSKRRFILKTCGTTLLLKALVPLLKLARDYSGFDSIQSFFYSRKNFMKPSHQGYPHRNFQEEIEFLNAIFPNGAAYCMGRMNSDCWYLYTLDFPESRVISQPDQTLEILMSELDPAVMDQFYMKDGVTAKDVTRESGIRDLIPGSVIDATMFNPCGYSMNGMKSDGTYWTIHITPEPEFSYVSFETNLSQTSYDDLIRKVVEVFKPGKFVTTLFVNQSSKCRTVLASPQKIEGFKRLDCQSAMFNDYNFVFTSFAKKQQQQQSHICRSQMVTSQQTSSVVRQT | soluble
MEADGLGCAVCVLTGASRGFGRALAPQLARLLSPGSVMLVSARSESMLRQLKEELGAQQPDLKVVLAAADLGTEAGVQRLLSAVRELPRPEGLQRLLLINNAATLGDVSKGFLNVNDLAEVNNYWALNLTSMLCLTSGTLNAFQDSPGLSKTVVNISSLCALQPYKGWGLYCAGKAARDMLYQVLAAEEPSVRVLSYAPGPLDNDMQQLARETSKDPELRSKLQKLKSDGALVDCGTSAQKLLGLLQKDTFQSGAHVDFYD | soluble
MEAEKKKLSIPPKGIRAIIEAIRLGEIIKPSQYAKREAFKKHDVEEAWLNRVLTMIFYDIMKKQGLIDKVIKEIVGVTPLILDPWLRAALRVAVDIALFHDPSSQTIKNLRWKASDFISSRTHPYVGMYFWDLLDKIFEYKPNPKNELEELEWKYLAPSWLIERVKGILGDETEDFFRSVNKRHEWISIRVNTLKANVEEVIGELEEDGVEVVRSERVPTILKIKGPYNFDTSSAFNEGKIIVQEEASAVASIVLDPKPGETVVDLAAAPGGKTTHLAELMKNKGKIYAFDVDKMRMKRLKDFVKRMGIKIVKPLVKDARKAPEIIGEEVADKVLLDAPCTSSGTIGKNPELRWRLREDKINEMSQLQRELLESAARLVKPGGRLLYTTCSIFKEENEKNIRWFLNVHPEFKLVPLKSPYDPGFLEGTMRAWPHRHSTIGFFYALLEKSK | soluble
MEAKQTVFVNEFTNGILDPHGNMLGPVQDGGYIVANTTPGCWGPMITPCIRGGHEVTKPVFVEGAEVGDAIAIKIKSIRVTSIATSSGNDKPMEGRFVGDPFVAVKCPQCGTMYPETKIEGIGPEAIRCANCGADVTPFVFTNGYTMTFDPNRQIGVTVHKEAAEHIARQGRYYMATPDNSVQNPIVTFAPHDLVGTVARLRPFLGQLGTTPARPLPDSHNAGDFGQFLINAPHEYGITKEQLEDRTDGHMDINRVREGAVLICPVKVRGGGVYLGDMHAMQGDGEIAGHTTDVSGIVTLQVKVIKGLTIDGPILLPVAEDLPYLAKPLTKKEKEIALDLAQSWGVDKLEESLPISFVGTGANLNEATENGLQRAAKTLGISVPEVMNRATITGAIEIGRHPGVITVTFLCPIRYLDKISLTSLVYDQYRSVLE | not soluble
MECETDEQKQGSDENMSECETSSVCSSSDTGLFTNDEGRQGDDEQSDWFYEGECVPGFTVPNLLPKWAPDHCSEVERMDSGLDKFSDSTFLLPSRPAQRGYHTRLNRLPGAAARCLRKGRRRLVGKETSINTLGTERISHIISDPRQKDFWLPSAGKRERNQFNPLSPLYSLDVLADASHRRCSPAHCSARQANVHWGPPCSRVIKRKRKPVATASLSSPSAVHMDAVEPTTPASQAPKSPSSEWLVRTSAAEKATDATTATFFKMPQEKSPGYSLEHHHHHH | soluble
MECSQEDVVNDFIALEKIGSEVDINLDGVIKSKECSNTNEADIISNLITAIEESLSCTSVCTAVSLETVAQKLDAYADPSLNTQMSFSTASDLSSMEQDYVKASDDPFDLNHQPSPLQVWRDQGKITGFQMMCDDQKVTVVDSLECLAQSEQHLEPVYFDPRVNLAIPCPPDDFEILEDYGSTSNASVNSDDASTAELGPTSEEFEEWVRKIEQNY | not soluble
MEDNNELIKGRGAQMQAKSRFHAQEIVQEHMEGIDEITDINTPTQYLYENAKQIVNKVDSPDIGLAYSMNPYQGCEHGCIYCYARNSHEYWGYNAGIDFEKKIIVKRNAASVLAKTFEKPNWEVLPIMFSGNTDCYQPIERKLQITRNMLQVIATYKHPVGMITKNHLITRDIDILKELAAQQLVHVSISITSARDEIRQKLEPRASAISQRLKTVEALAKENIPVNVMIAPIIPGINHHEIPQIMKQIADAGASSAAYTIVRLNGSIGVVFEDWIRKAYPDRADKVLNQIKECHGGTLNDSRFSTRMRGQGNIAASIHDLFYVSRKKYLSGREYPPLRTDLFVRSNKGQLGLF | not soluble
MEDQDLLEIGILNSGHRQRILQAIQLLPKMRPIGHDGYHPTSVAEWLDSIELGDYTKAFLINGYTSMDLLKKIWEVELINVLKINLIGHRKRILASLGDRLHDDPPQKPPRSITLREPSGNHTPPQLSPSLSQSTYTTGGSLDVPHIIMQGDARRRRNENYFDDIPRSKLERQMAQSSVCEIWTNQNAGFPFSAIHQVHNTGDWGEPSITLRPPNEATASTPVQYWQHHPEKLIFQSCDYKAFYLGSMLIKELRGTESTQDACAKMRANCQKSTEQMKKVPTIILSVSYKGVKFIDATNKNIIAEHEIRNISCAAQDPEDLSTFAYITKDLKSNHHYCHVFTAFDVNLAYEIILTLGQAFEVAYQLALQARKGGHSSTLPESFENKPSKPIPKPRVSIRKSVQIDPSEQKTLANLPWIVEPGQEAKRGINTKYETTIF | soluble
MEDRIQKAVELFKSGYNCSQSVVAAFADMYGFTQEQAVRMSASFGGGIGRMRETCGAACGLFLIAGLETGATEATDREGKAANYAVVQELAAEFKKRNGSLICGELLGLKKKEPISTVPEERNTQYYSKRPCAKMVEEAARIWVEYLEKHPK | not soluble
MEEGIKMGTKLTSLFKEGEKYQINTKYKELPIKTNLKLLWIDENMKLLGFSIGACVFKGAFTPGTEVYIKINGKYAYGKVFSCSNELVIEFKEIRKEPEFIRRRTVRVEPDPANPVVVELKVDSYSIKTKAKDISETGVGVILEKDKPESAEVIDIIQKNPNSWFDLYVHLPKHGTAHAKGRVRNLSIEEEGIYIRIGFEAEYSKEDREKVRRYVFERQQEIIKSLKML | not soluble
MEFGEKLIHLRKKNRLTQKQLAAKIGTTASTISKYENDNHRPPIFILAKLAEILGTTTDFLLDDVAGLREKNSVNAFPLIGNPELEKWYLELPYTYSEEELLMLKRIADAIENKK | not soluble
MEFINNITIRARVAFYLAVAQKAFEGLSENDQGYLQADEALKQCWNWLKGKNISGDELCEYLENERDTGLMVYSSFVQGDPVKEPIWITIITALMYTIWQAYQIENEKYLPESIEQVDEGTIDILIEYAKKCANYDEHWIKLLENYLLEKYRTTNMNEVGIAILKDEIMGIR | soluble
MEFMSAPANAVAADDATAIALKYNQDATKSERVAAARPGLPPEEQHCANCQFMQADAAGATDEWKGCQLFPGKLINVNGWSASWTLKAG | soluble
MEFVLASASPARRRLLQGIGINPIVHVSHFDESQIHHDDPAQLVEALAAAKAKTVAQHRQDALILGCDSVLHVRGEILGKPASPTEAIARWQTMRGHYGLLYTGHALVDQTQNQLLVRHGVTKVYFAAIDDDTIAAYVRSGEPLQCAGCFALEGKGGLFIEKIEGCHSNVIGLSLPLLREMLAHLGYTVQTLWP | not soluble
MEGLGRSCLWLRRELSPPRPRLLLLDCRSRELYESARIGGALSVALPALLLRRLRRGSLSVRALLPGPPLQPPPPAPVLLYDQGGGRRRRGEAEAEAEEWEAESVLGTLLQKLREEGYLAYYLQGGFSRFQAECPHLCETSLAGRAGSSMAPVPGPVPVVGLGSLCLGSDCSDAESEADRDSMSCGLDSEGATPPPVGLRASFPVQILPNLYLGSARDSANLESLAKLGIRYILNVTPNLPNFFEKNGDFHYKQIPISDHWSQNLSRFFPEAIEFIDEALSQNCGVLVHCLAGVSRSVTVTVAYLMQKLHLSLNDAYDLVKRKKSNISPNFNFMGQLLDFERSLRLEERHSQEQGSGGQASAASNPPSFFTTPTSDGAFELAPT | soluble
MEGLLMYDVHSKHADDFISHEEILETLAYADENKTNEALIDSILEKARLRKGLSHREASVLLACPIEEKNQEIYRLAEQIKKDFYGNRIVMFAPLYLSNYCVNGCTYCPYHLKNKHIARKQLTQEEIRKEVIALQDMGHKRLALEAGEDPVRNTIDYYLESIKTIYSIKHKNGAIRRVNINIAATTVDNYRLLKEAGIGTYILFQETYHKESYLALHPTGPKHDYNYHTEAMDRAMEGGIDDVGIGVLFGLDKYRYEFAGLLMHAEHLEAAFGVGPHTISVPRLRHADDINADEFDNGIDDDTFAKIVACIRIAVPYTGMIISTRESQKCRERVLHLGVSQISGGSRTSVGGYCEPEPDDAKSEQFDVSDTRTLDEVVRWLMEMDYIPSFCTACYREGRTGDRFMSLCKSGQIQNCCHPNALMTLKEYLMDYASPETKAIGDRLIDKEVLNVPNEKARAVVLENLRLIEQNNRRDFRF | not soluble
MEGLSMDQVVIFKQIFDKVRNDLNYQWFYSELKRHNVSHYIYYLATENVHIVLKNDNTVLLKGLKNIVSVKFSKDRHLIETTSNKLKSREITFQEYRRNLAKAGVFRWVTNIHEQKRYYYTFDNSLLFTESIQKTTQILPRLEHHHHHH | soluble
MEGVVRLEVPTPEEGFVNITRKVEAALSGHTGLVYLFVPHTTCGLTVQEGADPTVAQDLLGRLAELAPRHRPQDRHLEGNSHAHLKSLLTGVHLLLLAEKGRLRLGRWQQVFLAEFDGPRVREVWVRLL | soluble
